Measured values taken from patent US20240254229A1 (Molecular Partners, published 2024).
One block for each binder: values may come before it.

Columns and labels:
[1] = biological target: T1, human scCD3εγ (scCD3εγ_Avi-Bio) (human, biotin on the C-terminal Avi-tag (in vitro, BirA) where the biotinylated form was used); assay: SPR, set-up not described
T1 construct: Used for all SPR and HTRF results on human CD3; also called recombinant human CD3; human CD3
T1 chain: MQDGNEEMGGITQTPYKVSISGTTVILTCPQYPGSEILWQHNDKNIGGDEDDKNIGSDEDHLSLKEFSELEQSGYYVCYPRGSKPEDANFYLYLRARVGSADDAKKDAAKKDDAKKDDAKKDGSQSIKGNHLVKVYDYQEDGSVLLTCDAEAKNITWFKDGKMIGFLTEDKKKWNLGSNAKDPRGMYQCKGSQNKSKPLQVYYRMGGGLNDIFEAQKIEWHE

human serum albumin = biological target: T2, human serum albumin (human, UniProt P02768 25-609); assay: SPR, set-up not described
T2 construct: also called HSA; SA

[2] = biological target: T3, Molm-13 N1 tumor cells (carrying CD123, CD33 and CD70) (human, UniProt P20138 18-364; P26951 19-378; P32970 1-193); assay: flow cytometry on Molm-13 N1 cells, 20 uM HSA
T3 construct: whole, on cells; Not a complex: three separate antigens on one cell; also called Molm-13 N1 cells
Experimental: The determination of binding of several multispecific proteins to tumor cells was performed by Fluorescence Activated Cell Sorting (FACS) flow cytometry. Therefore, tumor cells (Molm-13 N1), were seeded at 100′000 cells per well in a 96 well plate. DARPin® protein #56, DARPin® protein #57, DARPin® protein #58, DARPin® protein #59, DARPin® protein #60, DARPin® protein #61 and DARPin® protein #62 were titrated down starting at 100 nM in 1:5 dilution ratio. Tumor cells were resuspended with diluted DARPin® proteins and incubated 60 minutes at 4° C. The assay was performed in PBS including 2% fetal bovine serum and human serum albumin 20 uM (HSA). After washing twice with Phosphate Buffer saline (PBS), DARPin® protein specific tumor cell binding was detected by adding unlabelled primary […] (anti-rabbit 1-1-1 antibody, CePower) at 2 ug/ml. An incubation step of at least 30 minutes at 4° C. followed. Afterwards, cells were washed with PBS and a secondary anti-rabbit antibody labelled with Alexa Fluor 647 antibody (ThermoFisher) at 2 ug/ml was added. The same incubation conditions applied. Finally, the cells were washed twice and resuspended in Cytofix fixation buffer (BD Biosciences) for 15 min at room temperature (RT). Median fluorescence intensities (MFI) of Alexa Fluor 647 DARPin® labelled cells were measured by Attune NxT (Thermo Fisher) using FlowJo software for analyses and GraphPad Prism 8 for data plotting.

[3] = biological target: T4, biotinylated extracellular domain of human CD33 (SEQ ID NO: 87), Fc and Avi tagged (human, UniProt P20138 18-259, biotinylated with BirA-GST (Avi tag)); assay: SPR (ProteOn), DARPin immobilized, hCD33 as analyte
T4 construct: also called hCD33; human target hCD33
Experimental: For measuring the interaction with human CD33, DARPin® protein #56 and DARPin® protein #57 were diluted in 10 mM NaOAc pH 4.0 and immobilized on an NHS/EDC activated HC200M sensorchip (XanTec bioanalytics GmbH) to a level of around 1000 resonance units (RU) (SMA555) or 1400 Rus (PSC466) using a ProteOn (BioRad). The surface was deactivated using Ethanolamine. The interaction of the tested proteins and human target hCD33 (SEQ ID NO:87) was then measured by injecting 400 μl running buffer (PBS, pH 7.4 containing 0.005% Tween 200) containing three-fold serial dilutions of human target hCD33 covering a concentration range between 66.7 nM and 0.82 nM, followed by a running buffer flow for 500 seconds at a constant flow rate of 100 μl/min (off-rate measurement). After each measurement, a 10 min pause was introduced to allow for complete dissociation of the analyte. Each interaction was recorded in triplicates. The signals (i.e. resonance unit (RU) values) of the interspots and a reference injection (i.e. injection of running buffer only) were subtracted from the RU traces obtained injecting human hCD33 (double-referencing). Dissociation constants (KD) were calculated from the globally fitted on- and off-rates using standard 1:1-Langmuir model.

[4] = biological target: T5, biotinylated extracellular domain of human CD123 (SEQ ID NO: 88), Fc and Avi tagged (human, UniProt P26951 19-303, biotinylated with BirA-GST (Avi tag)); assay: SPR (Bruker Sierra SPR-32 Pro), hCD123 on IgG capture chip
T5 construct: also called hCD123
T5 sequence: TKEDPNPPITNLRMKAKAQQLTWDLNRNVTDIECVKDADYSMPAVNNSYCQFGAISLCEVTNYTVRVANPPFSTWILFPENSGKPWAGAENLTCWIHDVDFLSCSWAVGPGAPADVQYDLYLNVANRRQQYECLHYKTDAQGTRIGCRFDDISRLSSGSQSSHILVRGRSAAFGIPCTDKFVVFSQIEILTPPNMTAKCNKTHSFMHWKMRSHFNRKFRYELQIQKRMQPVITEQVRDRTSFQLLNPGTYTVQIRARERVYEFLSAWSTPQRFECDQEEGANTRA
Experimental: The binding affinities of selected multispecific ankyrin repeat proteins on recombinant targets were analyzed using ProteOn (BioRad) and Bruker Sierra SPR-32 Pro instruments. The measurements were performed according to standard procedures known to the person skilled in the art. For that, DARPin® protein #56 and DARPin® protein #57 of the invention were subcloned and expressed as described above into derivatives of the pQE30 (Qiagen) expression vectors, containing an N-terminal His-tag, two human serum album specific binding domains and CD70, CD123 and CD33 specific binding domains, followed by one CD3 specific binding domain.
Similarly, human target_hCD123 (SEQ ID NO: 88) was diluted in PBST (PBS, pH 7.4 containing 0.005% Tween 20®) and captured on a Bruker IgG Capture sensorchip to a level of around 177 resonance units (RU) using a Bruker Sierra SPR-32pro. The interaction of each tested ankyrin repeat protein and target_hCD123 was then measured by injecting 100 μl running buffer (PBS, pH 7.4 containing 0.005% Tween 200) containing three-fold serial dilutions of ankyrin repeat proteins covering a concentration range between 200 nM and 91 pM, followed by a running buffer flow for at least 1500 seconds at a constant flow rate of 25 μl/min (off-rate measurement). […] Each interaction was recorded in triplicates. […]

[5] = biological target: T6, extracellular domain of human CD70 (SEQ ID NO: 89), hCD70-Fc-trimer, ACRO Biosystems (human, UniProt P32970 52-193, chemically biotinylated where the biotinylated form was used); assay: SPR (ProteOn), hCD70-Fc-trimer captured on protein A/G chip
T6 construct: also called human CD70-Fc-trimer; Bio.CD70
T6 sequence: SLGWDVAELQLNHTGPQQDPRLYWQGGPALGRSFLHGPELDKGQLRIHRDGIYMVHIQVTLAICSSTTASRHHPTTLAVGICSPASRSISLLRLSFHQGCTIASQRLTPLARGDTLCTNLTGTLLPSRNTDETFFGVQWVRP
Experimental: Briefly, human target CD70 (SEQ ID NO: 89; hCD70-Fc-trimer, ACRO Biosystems) was diluted in PBST (PBS, pH 7.4 containing 0.005% Tween 20®) and captured on a PAGD200L protein A/G sensorchip (XanTec bioanalytics GmbH) to a level of around 36 resonance units (RU) using a ProteOn (BioRad). The interaction of each tested ankyrin repeat protein and human CD70-Fc-trimer was then measured by injecting 400 μl running buffer (PBS, pH 7.4 containing 0.005% Tween 20®) containing three-fold serial dilutions of ankyrin repeat proteins covering a concentration range between 600 nM and 7.4 nM, followed by a running buffer flow for 2700 seconds at a constant flow rate of 100 μl/min (off-rate measurement). The regeneration was performed using 30 μl of 10 mM glycine pH 2 and hCD70-Fc-trimer was reinjected to prepare the surface for the next measurement. Each interaction was recorded in triplicates. The signals (i.e. resonance unit (RU) values) of the interspots and a reference injection (i.e. injection of running buffer only) were subtracted from the RU traces obtained injecting the ankyrin repeat protein (double-referencing). Dissociation constants (KD) were calculated from the globally fitted on- and off-rates using standard 1:1-Langmuir model.

T4 sequence (P20138 18-259 R69G): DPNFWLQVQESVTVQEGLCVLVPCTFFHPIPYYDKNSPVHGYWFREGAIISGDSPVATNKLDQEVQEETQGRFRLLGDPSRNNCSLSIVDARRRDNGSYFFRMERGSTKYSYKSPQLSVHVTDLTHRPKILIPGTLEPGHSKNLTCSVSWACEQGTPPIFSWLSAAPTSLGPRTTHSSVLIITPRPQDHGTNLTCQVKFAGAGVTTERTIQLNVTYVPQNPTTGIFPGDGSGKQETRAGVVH
T2 sequence (P02768 25-609 limits assumed): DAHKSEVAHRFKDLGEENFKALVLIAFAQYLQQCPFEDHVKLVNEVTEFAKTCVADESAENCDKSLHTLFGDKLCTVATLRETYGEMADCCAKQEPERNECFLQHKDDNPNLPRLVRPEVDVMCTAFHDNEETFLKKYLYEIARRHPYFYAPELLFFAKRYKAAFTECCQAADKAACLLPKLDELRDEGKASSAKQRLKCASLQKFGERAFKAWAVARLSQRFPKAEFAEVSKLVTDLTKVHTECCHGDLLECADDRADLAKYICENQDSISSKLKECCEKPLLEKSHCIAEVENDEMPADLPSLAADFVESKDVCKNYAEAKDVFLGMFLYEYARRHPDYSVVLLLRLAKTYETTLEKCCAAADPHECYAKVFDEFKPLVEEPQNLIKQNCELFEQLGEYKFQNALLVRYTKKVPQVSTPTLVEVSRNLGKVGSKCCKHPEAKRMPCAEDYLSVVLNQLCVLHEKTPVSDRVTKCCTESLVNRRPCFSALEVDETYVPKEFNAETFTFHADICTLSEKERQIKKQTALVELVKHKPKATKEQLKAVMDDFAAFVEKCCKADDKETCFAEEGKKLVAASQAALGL
T3 sequence (P20138 18-364, one chain of several): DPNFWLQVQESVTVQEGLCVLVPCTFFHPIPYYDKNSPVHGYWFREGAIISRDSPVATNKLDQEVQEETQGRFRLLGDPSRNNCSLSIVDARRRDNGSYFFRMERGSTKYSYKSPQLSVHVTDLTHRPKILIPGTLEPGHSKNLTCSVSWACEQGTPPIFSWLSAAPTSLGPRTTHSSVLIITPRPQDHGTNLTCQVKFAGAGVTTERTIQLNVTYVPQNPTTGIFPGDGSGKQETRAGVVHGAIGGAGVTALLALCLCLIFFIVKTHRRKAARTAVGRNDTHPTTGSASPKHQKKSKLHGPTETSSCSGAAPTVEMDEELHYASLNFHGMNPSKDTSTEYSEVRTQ

Kd [1]: 29 nM
Kd (human serum albumin): 110 nM
EC50 [2]: 0.13 nM
Kd [3]: 12 nM
Kd [4]: 0.094 nM
Kd [5]: 0.82 nM
B1: DARPin® protein #57 (designed binder)
chain: DLGKKLLEAARAGQDDEVRELLKAGADVNAKDYFSHTPLHLAARNGHLKIVEVLLKAGADVNAKDFAGKTPLHLAAADGHLEIVEVLLKAGADVNAQDIFGKTPADIAADAGHEDIAEVLQKAAGSPTPTPTTPTPTPTTPTPTPTGSDLGKKLLEAARAGQDDEVRELLKAGADVNAKDYFSHTPLHLAARNGHLKIVEVLLKAGADVNAKDFAGKTPLHLAAADGHLEIVEVLLKAGADVNAQDIFGKTPADIAADAGHEDIAEVLQKAAGSPTPTPTTPTPTPTTPTPTPTGSDLGIKLLTAAYDGQLDEVRILLKAGADVNAKDLRGQTPLHYAAGLGHLEIVEVLLKAGADVNAKDLHGWTPLHLAAWSGHLEIVEVLLKAGADVNAQDVEGVTPADLAAVQGHQDIAEVLQKAAGSPTPTPTTPTPTPTTPTPTPTGSDLGKKLLQAALEGQLDEVRELLKAGADVNAKDIEGYTPLHLAAALGHLEIVEVLLKAGADVNAKDQIGRTPLHLAAYKGHLEIVEVLLKAGADVNAQDIIGQTPADLAAQRGHQDIAEVLQKAAGSPTPTPTTPTPTPTTPTPTPTGSDLGKKLLLAAERGQLDEVRILLKAGADVNAKDRAEGYTPLHIAAYQGHLEIVEVLLKAGADVNAKDRYGKTPLHLAAISGHLEIVEVLLKAGADVNAQDNKGSTPADLAADYGHQDIAEVLQKAAGSPTGSDLGQKLLEAAWAGQDDEVRELLKAGADVNAKNSRGWTPLHTAAQTGHLEIFEVLLKAGADVNAKNDKRVTPLHLAAALGHLEIVEVLLKAGADVNARDSWGTTPADLAAKYGHQDIAEVLQKAA
notes: HSA-HSA-CD70-CD123-CD33-CD3; not shown: N-terminal His-tag

Kd [1]: 24 nM
Kd (human serum albumin): 120 nM
EC50 [2]: 0.26 nM
Kd [3]: 5.1 nM
Kd [4]: 0.056 nM
Kd [5]: 0.61 nM
B2: DARPin® protein #56 (designed binder)
chain: DLGKKLLEAARAGQDDEVRELLKAGADVNAKDYFSHTPLHLAARNGHLKIVEVLLKAGADVNAKDFAGKTPLHLAAADGHLEIVEVLLKAGADVNAQDIFGKTPADIAADAGHEDIAEVLQKAAGSPTPTPTTPTPTPTTPTPTPTGSDLGKKLLEAARAGQDDEVRELLKAGADVNAKDYFSHTPLHLAARNGHLKIVEVLLKAGADVNAKDFAGKTPLHLAAADGHLEIVEVLLKAGADVNAQDIFGKTPADIAADAGHEDIAEVLQKAAGSPTPTPTTPTPTPTTPTPTPTGSDLGVKLLLAAERGQLDEVRILLKAGADVNAKDIAEGYTPLHIAAYQGHLEIVEVLLKAGADVNAKDRYGKTPLHLAAIGGHLEIVEVLLKAGADVNAQDNKGSTPADLAADYGHQDIAEVLQKAAGSPTPTPTTPTPTPTTPTPTPTGSDLGKKLLEAALEGQLDEVRELLKAGADVNAKDQEGYTPLHLAAALGHLEIVEVLLKAGADVNAKDQIGRTPLHLAAYKGHLEIVEVLLKAGADVNAQDIIGQTPADLAAQRGHQDIAEVLQKAAGSPTPTPTTPTPTPTTPTPTPTGSDLGIKLLTAAYDGQLDEVRILLKAGADVNAKDLRGQTPLHYAAGLGHLEIVEVLLKAGADVNAKDLHGWTPLHLAAWSGHLEIVEVLLKAGADVNAQDVEGVTPADLAAVQGHQDIAEVLQKAAGSPTPTPTTPTPTPTTPTPTPTGSDLGQKLLEAAWAGQDDEVRELLKAGADVNAKNSRGWTPLHTAAQTGHLEIFEVLLKAGADVNAKNDKRVTPLHLAAALGHLEIVEVLLKAGADVNARDSWGTTPADLAAKYGHQDIAEVLQKAA
notes: HSA-HSA-CD33-CD123-CD70-CD3; not shown: N-terminal His-tag
